FAM = fluorescein label
Key:
[1] = target: T1, WT PKCβII catalytic domain (UniProt P05771-2 321-673, primed (phosphorylated) at the three PKC priming sites (T-loop, turn motif, hydrophobic motif)); test: fluorescence polarisation; PKCβII catalytic domain titrated into 280 nM fluorescein-PSS peptide in a cuvette; 20°C; 50 mM Tris-HCl pH 7.5, 150 mM NaCl, 5 mM MgCl2, 0.05% Brij-35, 500 μM AMP-PCP, 5% glycerol; anisotropy fitted assuming a 1:1 interaction; conditions: both partners purified
T1 construct: Protein kinase C beta, isoform PKCβII, catalytic domain released by TEV cleavage from GST-(3C)-PKCβII that carries a TEV site at position 321; Plasmids for WT PKCβI and PKCβII came from the laboratory archive; also called protein kinase C beta II catalytic domain; PKCβII kinase domain; source: SF21 cells (baculovirus), purified (Glutathione-Sepharose, His-TEV cleavage, Superdex 200); not shown: …
T1 sequence (P05771 other isoform, or with tags, fused parts or gaps): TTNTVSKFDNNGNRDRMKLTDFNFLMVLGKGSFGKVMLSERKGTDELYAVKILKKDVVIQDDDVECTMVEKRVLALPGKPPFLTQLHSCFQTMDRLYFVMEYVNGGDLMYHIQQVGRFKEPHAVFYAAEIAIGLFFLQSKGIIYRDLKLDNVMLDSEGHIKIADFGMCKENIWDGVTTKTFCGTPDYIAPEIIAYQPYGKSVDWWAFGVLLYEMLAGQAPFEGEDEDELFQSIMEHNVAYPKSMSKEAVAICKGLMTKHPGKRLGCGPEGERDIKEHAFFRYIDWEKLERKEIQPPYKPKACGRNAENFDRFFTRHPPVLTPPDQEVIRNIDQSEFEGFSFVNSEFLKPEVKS

[2] = target: T2, D427N PKCβII catalytic domain (UniProt P05771-2 321-673, D427N, phosphorylated at T500 and at the other two PKC priming sites in the C-terminal tail); test: as above; conditions: both partners purified
T2 construct: D427N is a somatic mutation found in ATLL patients; source: SF21 cells (baculovirus), purified (Glutathione-Sepharose, His-TEV cleavage, Superdex 200); not shown: GST, N-terminal, cleaved
T2 sequence (P05771 other isoform, or with tags, fused parts or gaps D427N | D427N | D427N D427N): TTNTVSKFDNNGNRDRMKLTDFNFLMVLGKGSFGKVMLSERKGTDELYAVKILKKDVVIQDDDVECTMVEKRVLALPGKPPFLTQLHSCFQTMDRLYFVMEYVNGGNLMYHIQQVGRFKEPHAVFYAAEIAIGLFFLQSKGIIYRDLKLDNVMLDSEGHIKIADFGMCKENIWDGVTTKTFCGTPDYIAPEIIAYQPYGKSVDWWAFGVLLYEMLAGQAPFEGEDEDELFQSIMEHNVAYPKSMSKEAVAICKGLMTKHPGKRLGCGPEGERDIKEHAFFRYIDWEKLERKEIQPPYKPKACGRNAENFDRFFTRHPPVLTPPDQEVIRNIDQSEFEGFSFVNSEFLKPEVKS

B1: Fluorescein-PSS peptide (peptide)
peptide: {FAM}-ESTVRFARKGSLRQKNVH-NH2
notes: source: synthetic peptide (HPLC purified to >95%)
In the case of B1, the Kd [1] is reported as 35.3 µM and the Kd [2] is reported as 72 µM.

Source: article PMC12687424, “Penetrant PKCβ mutation in ATLL displays a mixed gain-of-function” (Biochemical Journal, 2025)
